Legend:
[1] = biological target: BA8 Fab N55 A mutant (heavy chain) (rabbit); assay: ITC; MicroCal PEAQ-ITC; 10 μM BA8 Fab in the cell, 100 μM CCR5 N-terminal peptide in the syringe; PBS; 25 °C (297 K in the table's footnote); one set of sites
[2] = biological target: BA8 Fab Y31 A mutant (heavy chain) (rabbit); assay: as above
[3] = biological target: BA8 Fab S32 A mutant (heavy chain) (rabbit); assay: as above
[4] = biological target: BA8 Fab Y57 F mutant (heavy chain) (rabbit); assay: as above
[5] = biological target: BA8 Fab S30 A mutant (heavy chain) (rabbit); assay: as above
[6] = biological target: BA8 Fab W46 A mutant (heavy chain) (rabbit); assay: as above
[7] = biological target: BA8 Fab LC S98 A mutant (light chain) (rabbit); assay: as above
[8] = biological target: BA8 Fab S52 A mutant (heavy chain) (rabbit); assay: as above
[9] = biological target: BA8 Fab Y57 A mutant (heavy chain) (rabbit); assay: as above
[10] = biological target: BA8 Fab N55 A mutant (heavy chain) (rabbit); assay: SPR; Biacore 8K; each Fab immobilised on a CM5 chip by amine coupling (pH 5.5, about 3000 RU); peptides as analytes, 2 to 162 nM (20 nM to 1620 nM for the R34 A, S52 A and Y57 A mutants of Fig. 3C); PBS with 0.005% Tween 20; 30 μl/min; global fitting
[11] = biological target: BA8 Fab Y31 A mutant (heavy chain) (rabbit); assay: as above
[12] = biological target: BA8 Fab S32 A mutant (heavy chain) (rabbit); assay: as above
[13] = biological target: BA8 Fab Y57 F mutant (heavy chain) (rabbit); assay: as above
[14] = biological target: BA8 Fab S30 A mutant (heavy chain) (rabbit); assay: as above
[15] = biological target: BA8 Fab W46 A mutant (heavy chain) (rabbit); assay: as above
[16] = biological target: BA8 Fab LC S98 A mutant (light chain) (rabbit); assay: as above
[17] = biological target: BA8 Fab Y57 A mutant (heavy chain) (rabbit); assay: as above

BA8 Fab LC S98 A mutant (light chain) (rabbit), sequence (heavy, as listed by the source, chain 1 of 2): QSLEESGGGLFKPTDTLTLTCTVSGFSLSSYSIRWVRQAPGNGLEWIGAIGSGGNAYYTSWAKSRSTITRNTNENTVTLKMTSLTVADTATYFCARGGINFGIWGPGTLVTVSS
BA8 Fab LC S98 A mutant (light chain) (rabbit), sequence (light, as listed by the source, chain 2 of 2): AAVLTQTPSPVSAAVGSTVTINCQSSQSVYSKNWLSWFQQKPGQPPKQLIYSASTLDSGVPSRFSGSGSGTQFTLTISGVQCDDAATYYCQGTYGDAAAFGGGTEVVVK
BA8 Fab Y57 F mutant (heavy chain) (rabbit), sequence (heavy, as listed by the source, chain 1 of 2): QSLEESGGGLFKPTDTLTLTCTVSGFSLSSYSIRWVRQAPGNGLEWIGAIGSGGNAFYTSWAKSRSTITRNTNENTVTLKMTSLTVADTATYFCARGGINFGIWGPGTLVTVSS
BA8 Fab Y57 F mutant (heavy chain) (rabbit), sequence (light, as listed by the source, chain 2 of 2): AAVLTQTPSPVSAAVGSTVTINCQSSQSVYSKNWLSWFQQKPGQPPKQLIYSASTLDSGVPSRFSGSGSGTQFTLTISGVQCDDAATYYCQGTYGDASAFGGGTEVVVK
BA8 Fab W46 A mutant (heavy chain) (rabbit), sequence (heavy, as listed by the source, chain 1 of 2): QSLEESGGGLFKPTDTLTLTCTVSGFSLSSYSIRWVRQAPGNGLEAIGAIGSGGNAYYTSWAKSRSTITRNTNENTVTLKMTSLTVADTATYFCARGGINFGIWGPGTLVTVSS
BA8 Fab N55 A mutant (heavy chain) (rabbit), sequence (heavy, as listed by the source, chain 1 of 2): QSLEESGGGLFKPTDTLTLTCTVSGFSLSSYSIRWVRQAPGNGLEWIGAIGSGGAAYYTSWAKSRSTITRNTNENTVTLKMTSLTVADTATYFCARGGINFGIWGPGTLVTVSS
BA8 Fab Y31 A mutant (heavy chain) (rabbit), sequence (heavy, as listed by the source, chain 1 of 2): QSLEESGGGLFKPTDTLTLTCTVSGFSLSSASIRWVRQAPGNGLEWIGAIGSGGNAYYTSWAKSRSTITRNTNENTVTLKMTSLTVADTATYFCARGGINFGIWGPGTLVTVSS
BA8 Fab Y57 A mutant (heavy chain) (rabbit), sequence (heavy, as listed by the source, chain 1 of 2): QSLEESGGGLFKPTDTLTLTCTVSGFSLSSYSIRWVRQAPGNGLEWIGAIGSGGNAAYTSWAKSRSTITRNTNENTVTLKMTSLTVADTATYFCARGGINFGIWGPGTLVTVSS
BA8 Fab S52 A mutant (heavy chain) (rabbit), sequence (heavy, as listed by the source, chain 1 of 2): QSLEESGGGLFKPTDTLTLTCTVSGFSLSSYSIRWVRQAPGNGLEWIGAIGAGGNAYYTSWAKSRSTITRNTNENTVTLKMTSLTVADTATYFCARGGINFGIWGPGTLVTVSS
BA8 Fab S30 A mutant (heavy chain) (rabbit), sequence (heavy, as listed by the source, chain 1 of 2): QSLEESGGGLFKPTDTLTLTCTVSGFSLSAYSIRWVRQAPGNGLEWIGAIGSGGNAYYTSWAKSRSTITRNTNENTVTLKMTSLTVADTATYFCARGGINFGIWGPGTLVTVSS
BA8 Fab S32 A mutant (heavy chain) (rabbit), sequence (heavy, as listed by the source, chain 1 of 2): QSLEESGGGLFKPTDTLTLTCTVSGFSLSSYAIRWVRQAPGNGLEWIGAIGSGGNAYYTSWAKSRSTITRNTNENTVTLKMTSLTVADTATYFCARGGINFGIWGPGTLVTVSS

Substance: sulfated N-terminal peptide of CCR5 (Pro8 to Ser18 with sulfated Tyr10, Tyr14 and Tyr15)
- dH [1]: -27.6 kcal/mol
- stoichiometry N [1]: 0.844 sites
- Kd [2]: 4.41 nM
- dH [2]: -22.8 kcal/mol
- stoichiometry N [2]: 0.839 sites
- dH [3]: -26 kcal/mol
- stoichiometry N [3]: 0.903 sites
- Kd [4]: 10.5 nM
- dH [4]: -25 kcal/mol
- stoichiometry N [4]: 0.896 sites
- dH [5]: -25.8 kcal/mol
- stoichiometry N [5]: 0.892 sites
- Kd [6]: 6.1 nM
- dH [6]: -27.2 kcal/mol
- stoichiometry N [6]: 0.824 sites
- dH [7]: -26.2 kcal/mol
- stoichiometry N [7]: 0.924 sites
- Kd [8]: 726 nM
- dH [8]: -16.6 kcal/mol
- stoichiometry N [8]: 0.796 sites
- Kd [9]: 73.7 nM
- dH [9]: -21.7 kcal/mol
- stoichiometry N [9]: 0.854 sites
- Kd [10]: 1.8 nM
- Kd [11]: 18.6 nM
- Kd [12]: 1.94 nM
- Kd [13]: 2.36 nM
- Kd [14]: 1.44 nM
- Kd [15]: 21.8 nM
- Kd [16]: 2.41 nM
- Kd [17]: 446 nM
